Data reported in the supplement of paper PMC9112550, “Optimization of the antimicrobial peptide Bac7 by deep mutational scanning” (BMC Biology, 2022).

These sequences were tested on Escherichia coli TOP10 (assay: shrunken log2 fold change of peptide-encoding DNA abundance (4.5 h post-induction vs induction); higher = less antimicrobial activity (less host growth inhibition)). Conditions: time post-induction: 4.5 h; library: site-saturation at positions 5, 18, 19, 20.
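Also: peptides expressed intracellularly from a pBAD plasmid library in pooled LB shake-flask culture, induced with 0.3% L-arabinose, DNA abundance read by NGS, three biological replicates, DESeq2 with apeglm shrinkage.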

| Sequence | shrunken log2 fold change |
| --- | --- |
| RRIRHRPPRLPRPRPRPAYKPRP | -0.102 |
| RRIRYRPPRLPRPRPRPVEDPRP | -0.0671 |
| RRIRARPPRLPRPRPRPDDDPRP | 0.257 |
| RRIRCRPPRLPRPRPRPVRRPRP | 1.1 |
| RRIRLRPPRLPRPRPRPGWFPRP | 0.147 |
| RRIRQRPPRLPRPRPRPNWPPRP | 0.192 |
| RRIRDRPPRLPRPRPRPPLIPRP | 0.129 |
| RRIRDRPPRLPRPRPRPNEDPRP | 0.00355 |
| RRIRWRPPRLPRPRPRPTCDPRP | 0.388 |
| RRIRFRPPRLPRPRPRPHIIPRP | -0.879 |
| RRIRRRPPRLPRPRPRPPDYPRP | 0.244 |
| RRIRNRPPRLPRPRPRPHDSPRP | -0.0662 |
| RRIRPRPPRLPRPRPRPPISPRP | -0.0159 |
| RRIRVRPPRLPRPRPRPKGPPRP | 0.36 |
| RRIRYRPPRLPRPRPRPDINPRP | -0.162 |
| RRIRIRPPRLPRPRPRPSACPRP | -0.561 |
| RRIRQRPPRLPRPRPRPSSNPRP | -0.222 |
| RRIRGRPPRLPRPRPRPLMVPRP | 0.885 |
| RRIRSRPPRLPRPRPRPCLMPRP | -0.135 |
| RRIRSRPPRLPRPRPRPGVWPRP | 0.74 |
| RRIRMRPPRLPRPRPRPYNSPRP | -0.22 |
| RRIRTRPPRLPRPRPRPNHLPRP | -0.15 |
| RRIRNRPPRLPRPRPRPMNYPRP | -0.00918 |
| RRIRGRPPRLPRPRPRPLMCPRP | 0.55 |
| RRIRQRPPRLPRPRPRPNLQPRP | 0.0864 |

| Sequence | shrunken log2 fold change |
| --- | --- |
| RRIRFRPPRLPRPRPRPPQKPRP | 0.719 |
| RRIRGRPPRLPRPRPRPYSWPRP | 0.187 |
| RRIRRRPPRLPRPRPRPQCIPRP | -0.0103 |
| RRIRPRPPRLPRPRPRPLMWPRP | 0.432 |
| RRIRPRPPRLPRPRPRPEMGPRP | 0.268 |
| RRIRPRPPRLPRPRPRPVVSPRP | -0.0387 |
| RRIRTRPPRLPRPRPRPQWFPRP | -0.0925 |
| RRIRWRPPRLPRPRPRPNMGPRP | -0.0382 |
| RRIRMRPPRLPRPRPRPPWCPRP | 0.831 |
| RRIRARPPRLPRPRPRPTQKPRP | -0.0406 |
| RRIRFRPPRLPRPRPRPTTKPRP | -0.167 |
| RRIRKRPPRLPRPRPRPDDNPRP | 1.02 |
| RRIRPRPPRLPRPRPRPGSFPRP | 0.0277 |
| RRIRGRPPRLPRPRPRPGDAPRP | 1.09 |
| RRIRGRPPRLPRPRPRPFHEPRP | -0.537 |
| RRIRSRPPRLPRPRPRPTIKPRP | -0.29 |
| RRIRIRPPRLPRPRPRPFCNPRP | -0.553 |
| RRIRNRPPRLPRPRPRPNMTPRP | -0.345 |
| RRIRPRPPRLPRPRPRPIAYPRP | -0.0833 |
| RRIRGRPPRLPRPRPRPNGVPRP | -0.186 |
| RRIRFRPPRLPRPRPRPLSMPRP | -0.363 |
| RRIRVRPPRLPRPRPRPHTYPRP | -0.154 |
| RRIRHRPPRLPRPRPRPSCNPRP | -0.599 |
| RRIRARPPRLPRPRPRPKQMPRP | 0.439 |
| RRIRCRPPRLPRPRPRPFIQPRP | -1.04 |

| Sequence | shrunken log2 fold change |
| --- | --- |
| RRIRVRPPRLPRPRPRPDVDPRP | -0.367 |
| RRIRRRPPRLPRPRPRPGPIPRP | 0.174 |
| RRIRTRPPRLPRPRPRPWHKPRP | -0.168 |
| RRIRMRPPRLPRPRPRPKGDPRP | 2.08 |
| RRIRCRPPRLPRPRPRPFAGPRP | -0.175 |
| RRIRMRPPRLPRPRPRPWYRPRP | -0.277 |
| RRIRFRPPRLPRPRPRPWRVPRP | 0.0748 |
| RRIRMRPPRLPRPRPRPYGHPRP | -0.0791 |
| RRIRGRPPRLPRPRPRPSDFPRP | 0.0231 |
| RRIRDRPPRLPRPRPRPSRAPRP | 0.156 |
| RRIRDRPPRLPRPRPRPWNCPRP | -0.3 |
| RRIRERPPRLPRPRPRPKGAPRP | 0.216 |
| RRIRLRPPRLPRPRPRPGVLPRP | 0.204 |
| RRIRCRPPRLPRPRPRPEGNPRP | -0.0225 |
| RRIRIRPPRLPRPRPRPSRHPRP | -0.384 |
| RRIRRRPPRLPRPRPRPWQGPRP | -0.00783 |
| RRIRARPPRLPRPRPRPRRWPRP | 0.739 |
| RRIRFRPPRLPRPRPRPAVYPRP | -0.35 |
| RRIRCRPPRLPRPRPRPTEMPRP | -0.102 |
| RRIRARPPRLPRPRPRPRTDPRP | 0.465 |
| RRIRGRPPRLPRPRPRPNCFPRP | 0.268 |
| RRIRNRPPRLPRPRPRPDIHPRP | -0.0173 |
| RRIRYRPPRLPRPRPRPGSHPRP | -1.48 |
| RRIRKRPPRLPRPRPRPATAPRP | 0.18 |
| RRIRIRPPRLPRPRPRPQTLPRP | -0.129 |

| Sequence | shrunken log2 fold change |
| --- | --- |
| RRIRKRPPRLPRPRPRPRPHPRP | 0.762 |
| RRIRWRPPRLPRPRPRPYFYPRP | -0.679 |
| RRIRARPPRLPRPRPRPHMFPRP | 0.0892 |
| RRIRIRPPRLPRPRPRPPPSPRP | 0.399 |
| RRIRWRPPRLPRPRPRPVKFPRP | 0.0171 |
| RRIRHRPPRLPRPRPRPDAIPRP | -0.025 |
| RRIRARPPRLPRPRPRPEKQPRP | -0.148 |
| RRIRGRPPRLPRPRPRPISKPRP | 0.0989 |
| RRIRCRPPRLPRPRPRPKCEPRP | 0.11 |
| RRIRERPPRLPRPRPRPLWSPRP | -0.125 |
| RRIRWRPPRLPRPRPRPCEAPRP | 0.471 |
| RRIRGRPPRLPRPRPRPWGAPRP | 0.444 |
| RRIRERPPRLPRPRPRPEDFPRP | 0.089 |
| RRIRERPPRLPRPRPRPWVFPRP | -0.0105 |
| RRIRSRPPRLPRPRPRPDNAPRP | -0.201 |
| RRIRMRPPRLPRPRPRPYFHPRP | -0.614 |
| RRIRVRPPRLPRPRPRPTQRPRP | 0.565 |
| RRIRHRPPRLPRPRPRPRLYPRP | 0.114 |
| RRIRPRPPRLPRPRPRPVSMPRP | 1.41 |
| RRIRPRPPRLPRPRPRPSHNPRP | -0.645 |
| RRIRGRPPRLPRPRPRPKKRPRP | 0.817 |
| RRIRVRPPRLPRPRPRPVNWPRP | 0.27 |
| RRIRTRPPRLPRPRPRPAMGPRP | 0.391 |
| RRIRMRPPRLPRPRPRPQTCPRP | 0.0193 |
| RRIRKRPPRLPRPRPRPFFWPRP | 1.09 |

| Sequence | shrunken log2 fold change |
| --- | --- |
| RRIRVRPPRLPRPRPRPLDCPRP | -0.0035 |
| RRIRLRPPRLPRPRPRPYHDPRP | -0.131 |
| RRIRSRPPRLPRPRPRPHGCPRP | -0.0029 |
| RRIRPRPPRLPRPRPRPDEYPRP | -0.015 |
| RRIRPRPPRLPRPRPRPIWYPRP | -0.0201 |
| RRIRPRPPRLPRPRPRPCTPPRP | -0.167 |
| RRIRIRPPRLPRPRPRPSWAPRP | -0.0867 |
| RRIRARPPRLPRPRPRPCQCPRP | 0.0726 |
| RRIRWRPPRLPRPRPRPSTGPRP | 0.00923 |
| RRIRGRPPRLPRPRPRPQCGPRP | 0.601 |
| RRIRSRPPRLPRPRPRPGVIPRP | -0.0412 |
| RRIRSRPPRLPRPRPRPTRQPRP | 0.215 |
| RRIRYRPPRLPRPRPRPMYSPRP | -0.018 |
| RRIRVRPPRLPRPRPRPHYPPRP | -0.675 |
| RRIRIRPPRLPRPRPRPFYHPRP | -0.594 |
| RRIRRRPPRLPRPRPRPPPTPRP | 1.12 |
| RRIRKRPPRLPRPRPRPPQMPRP | 0.278 |
| RRIRMRPPRLPRPRPRPIQDPRP | -0.114 |
| RRIRLRPPRLPRPRPRPYHKPRP | -0.304 |
| RRIRKRPPRLPRPRPRPATYPRP | 0.0782 |
| RRIRARPPRLPRPRPRPRAFPRP | 0.398 |
| RRIRPRPPRLPRPRPRPHRSPRP | 0.0256 |
| RRIRPRPPRLPRPRPRPTHNPRP | 0.199 |
| RRIRHRPPRLPRPRPRPSKDPRP | -0.293 |
| RRIRCRPPRLPRPRPRPPSNPRP | -0.416 |

| Sequence | shrunken log2 fold change |
| --- | --- |
| RRIRARPPRLPRPRPRPKVNPRP | -0.109 |
| RRIRKRPPRLPRPRPRPMLVPRP | -0.0603 |
| RRIRLRPPRLPRPRPRPCQPPRP | -0.0919 |
| RRIRVRPPRLPRPRPRPAVCPRP | 0.258 |
| RRIRQRPPRLPRPRPRPQWQPRP | 0.16 |
| RRIRLRPPRLPRPRPRPCTRPRP | -0.0398 |
| RRIRRRPPRLPRPRPRPSFHPRP | -0.182 |
| RRIRERPPRLPRPRPRPSWKPRP | -0.345 |
| RRIRNRPPRLPRPRPRPGWRPRP | 0.564 |
| RRIRTRPPRLPRPRPRPRVQPRP | -0.2 |
| RRIRFRPPRLPRPRPRPEANPRP | 0.666 |
| RRIRYRPPRLPRPRPRPEAEPRP | 0.137 |
| RRIRRRPPRLPRPRPRPQSVPRP | -0.0146 |
| RRIRWRPPRLPRPRPRPQTSPRP | -0.0118 |
| RRIRARPPRLPRPRPRPLKGPRP | 0.052 |
| RRIRVRPPRLPRPRPRPFPWPRP | -0.0892 |
| RRIRNRPPRLPRPRPRPEFGPRP | -0.106 |
| RRIRERPPRLPRPRPRPYCNPRP | -0.143 |
| RRIRERPPRLPRPRPRPHQWPRP | -0.199 |
| RRIRLRPPRLPRPRPRPICRPRP | -0.13 |
| RRIRYRPPRLPRPRPRPEHPPRP | -0.143 |
| RRIRHRPPRLPRPRPRPGHQPRP | -0.149 |
| RRIRDRPPRLPRPRPRPRQYPRP | -0.332 |
| RRIRSRPPRLPRPRPRPDDFPRP | -0.151 |
| RRIRWRPPRLPRPRPRPCCIPRP | 0.0413 |
